Results from publication doi:10.1101/2025.08.30.673307 (bioRxiv, 2025).

Molecular target: the molecule itself
Assay: cryo-EM structure

B1: stomatin (STOM) fused at its C terminus with a Twin-Strep tag (natural protein, human, UniProt P27105 1-288, looked up)
chain: MAEKRHTRDSEAQRLPDSFKDSPSKGLGPCGWILVAFSFLFTVITFPISIWMCIKIIKEYERAIIFRLGRILQGGAKGPGLFFILPCTDSFIKVDMRTISFDIPPQEILTKDSVTISVDGVVYYRVQNATLAVANITNADSATRLLAQTTLRNVLGTKNLSQILSDREEIAHNMQSTLDDATDAWGIKVERVEIKDVKLPVQLQRAMAAEAEASREARAKVIAAEGEMNASRALKEASMVITESPAALQLRYLQTLTTIAAEKNSTIVFPLPIDMLQGIIGAKHSHLG
For B1, the “stoichiometry N” value was 16 subunits.
